T1: mouse FcRn (R&D systems, 9114-Fc) (mouse, UniProt Q61559 22-297; P01887 21-119, limits assumed)
T1 sequence (looked up) 1: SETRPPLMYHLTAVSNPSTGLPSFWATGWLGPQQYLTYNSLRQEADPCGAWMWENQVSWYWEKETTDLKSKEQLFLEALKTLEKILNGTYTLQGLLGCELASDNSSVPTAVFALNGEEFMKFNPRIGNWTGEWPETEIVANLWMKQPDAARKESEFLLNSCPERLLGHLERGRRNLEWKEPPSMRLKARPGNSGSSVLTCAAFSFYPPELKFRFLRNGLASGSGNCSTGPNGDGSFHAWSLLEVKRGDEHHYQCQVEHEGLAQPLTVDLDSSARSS
T1 sequence (looked up) 2: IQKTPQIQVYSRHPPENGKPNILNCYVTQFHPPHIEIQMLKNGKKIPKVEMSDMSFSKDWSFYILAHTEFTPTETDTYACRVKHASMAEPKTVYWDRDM

B1: G1-AA/E12v2 (antibody, human IgG1, kappa, L234A L235A, V domains shown)
VH: EVQLVQSGAEVKRPGASVKVSCKASGYPFTSYGISWVRQAPGQGLEWMGWISAYSGGTNYAQKLQGRVTMTTDTSTSTAYMELRSLRSDDTAVYYCARDLFPTIFGVSYYYYWGQGTLVTVSS
VL: DIQMTQSPSTLSASVRDRVIITCRASQSIGNRLAWYQHKPGKAPKLLIYEASTSETGVPSRFSGSGSGTDFTLTISSLQPEDFATYYCQQSYSTPYTFGQGTKLEIKR
notes: anti-PD-L1 IgG1 with LALA
B2: G1-AA/HeID1.3 (antibody, human IgG1, kappa, L234A L235A)
heavy: not shown
light: DIQMTQSPASLSASVGETVTITCRASGNIHNYLAWYQQKQGKSPQLLVYNAKTLADGVPSRFSGSGSGTQYSLKINSLQPEDFGSYYCQHFWSTPRTFGGGTKLEIKRTVAAPSVFIFPPSDEQLKSGTASVVCLLNNFYPREAKVQWKVDNALQSGNSQESVTEQDSKDSTYSLSSTLTLSKADYEKHKVYACEVTHQGLSSPVTKSFNRGEC
notes: anti-hen egg lysozyme IgG1 with LALA, isotype control

What was measured:
[1] = target: T2, human PD-L1, cell-surface (human, UniProt Q9NZQ7 19-290); test: flow cytometry on activated primary human CD4+ T cells; activated primary human CD4+ T cells
T2 construct: also called HEK.hPD-L1; PD-L1 on MDA-MB-231, on Promega PD-L1 cells, on primary human cells
T2 sequence (Q9NZQ7 19-290): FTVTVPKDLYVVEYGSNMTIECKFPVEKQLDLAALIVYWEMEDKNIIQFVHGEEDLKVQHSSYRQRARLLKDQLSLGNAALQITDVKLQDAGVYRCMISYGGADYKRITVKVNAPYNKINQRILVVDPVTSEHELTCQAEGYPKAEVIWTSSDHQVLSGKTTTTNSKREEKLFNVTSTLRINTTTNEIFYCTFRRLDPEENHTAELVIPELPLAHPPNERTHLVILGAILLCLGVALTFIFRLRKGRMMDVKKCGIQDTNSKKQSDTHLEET
Description: CD137 is rapidly expressed to high levels on activated CD8⁺ T cells and also on activated CD4⁺ T cells with lower levels (Xue-Zhong Yu et al, 2013), therefore Pan T cells were stimulated for 24 hours using Dynabeads™ Human T-Activator CD3/CD28 beads (Thermo, 11132D) according to manufacturer's instructions.
Dead cells were excluded and the fluorescence in the APC channel (638 nm 660/20) was measured to show test antibody binding. The geometric Mean Fluorescence Intensity (GMFI) values were plotted vs the log concentration of antibody and the resulting curves were fitted using the log (agonist) vs response equation in GraphPad Prism.

[2] = target: T2, human PD-L1, cell-surface; test: cell-based or functional assay
[3] = target: T2, human PD-L1, cell-surface; test: cell-based or functional assay; remark: listed apart in the source
[4] = target: T2, human PD-L1, cell-surface; test: flow cytometry on HEK.hPD-L1
Description: (§1) Non-specific binding was also assessed by testing binding to HEK293 parental cells lacking human PD-L1 (Flp-In T-Rex 293 cell line, Life Technologies, R780-07).
(§2) HEK293, HEK.hPD-L1 and HEK.cPD-L1 suspensions were prepared in FACS buffer (DPBS (Gibco, 14190-094) containing 0.5% BSA (Sigma, A7906)) and seeded at 1×10⁵ cell/well in 100 μl in round bottomed 96-well plates (VWR, 734-1797). […] The washed cells were resuspended in the diluted antibody mixture, incubated at 4° C. for 30 minutes, and then washed once in FACS buffer. […] Dead cells were excluded and the fluorescence in the APC channel (638 nm 660/20) was measured. The geometric mean fluorescence intensity (GMFI) values were plotted vs the log concentration of antibody and the resulting curves were fitted using the log (agonist) vs response equation in GraphPad Prism.

[5] = target: T3, cPD-L1-His (Acro Biosystems, PD1-C52H4) (cynomolgus, UniProt Q9NZQ7 19-238 (human entry)); test: SPR, antibody captured on Protein A chip, antigen in flow
T3 construct: bought; also called Cyno PD-L1-His; Cynomolgus PD-L1-His; not shown: His tag of the bought product
T3 sequence (Q9NZQ7 other isoform, or with tags, fused parts or gaps): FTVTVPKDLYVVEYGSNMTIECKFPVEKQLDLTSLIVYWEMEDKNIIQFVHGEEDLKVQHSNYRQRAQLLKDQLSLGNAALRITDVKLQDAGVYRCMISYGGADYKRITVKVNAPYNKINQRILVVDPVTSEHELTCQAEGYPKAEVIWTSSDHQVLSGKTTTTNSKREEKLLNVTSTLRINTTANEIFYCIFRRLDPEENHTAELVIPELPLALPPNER

[6] = target: T4, biotinylated hPD-L1-Avi-His (Acro Biosystems, PD1-H82E5) (human, UniProt Q9NZQ7 19-238, biotinylated); test: as above
T4 construct: bought; also called Human PD-L1-His; not shown: Avi and His tags of the bought product
T4 sequence (Q9NZQ7 19-238): as the sequence (Q9NZQ7 other isoform, or with tags, fused parts or gaps) above, with T33A, S34A, N62S, Q68R, R82Q, L173F, A185T, I192T, L215H counted along it

[7] = target: T5, cynomolgus PD-L1, cell-surface (cynomolgus); test: flow cytometry on HEK.cPD-L1
T5 construct: also called HEK.cPD-L1; HEK.cyPD-L1
T5 sequence (chain, as listed by the source limits assumed): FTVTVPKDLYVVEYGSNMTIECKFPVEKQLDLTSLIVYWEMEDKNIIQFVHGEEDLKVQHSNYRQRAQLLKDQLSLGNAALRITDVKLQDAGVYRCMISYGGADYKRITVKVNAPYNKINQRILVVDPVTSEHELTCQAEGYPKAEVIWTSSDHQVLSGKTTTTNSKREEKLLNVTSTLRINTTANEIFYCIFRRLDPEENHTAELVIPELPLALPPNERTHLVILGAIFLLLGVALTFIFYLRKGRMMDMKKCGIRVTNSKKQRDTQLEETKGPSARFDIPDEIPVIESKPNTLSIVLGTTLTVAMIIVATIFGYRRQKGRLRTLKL
Description: as §1, §2

[8] = target: T2, human PD-L1, cell-surface; test: cell-based or functional assay; remark: listed apart in the source
[9] = target: T2, human PD-L1, cell-surface; test: cell-based or functional assay; remark: listed apart in the source
[10] = target: T1, mouse FcRn (R&D systems, 9114-Fc); test: SPR, antibody immobilised, FcRn in flow, pH 6.0, steady state affinity; pH 6.0
Source text: (§3) The neonatal Fc receptor (FcRn) binding is critical for antibody recycling (Martins et al., 2016). […] G1-AA/HeID1.3 was included as an isotype control IgG control lacking mutations in the CH3 domain.
(§4) Briefly, mAb² were individually coated on flow cell 2, 3 and 4 of Series S Sensor Chip CM5 (GE Healthcare, BR100530) to achieve a response of approximately 1000 RU. Flow cell 1 was activated/deactivated but left blank as a reference. Human FcRn (Acro Biosystems, FCM-H5286) or mouse FcRn (R&D systems, 9114-Fc) was dialysed and diluted in MHBS-EP⁺B pH 6.0 or pH 7.4 buffer (10 mM MES, FortéBio, 18-5026; 1×HBS-EP, GE Healthcare, BR100669; 0.1 mg/ml BSA, Sigma, A7906) and injected on flow cell 1, 2, 3 and 4 at 2000-3000 nM with 2-fold dilutions for 1 min at 80 μl/min and then allowed to dissociate in buffer for 3 min. […] Subtracted data (flow cell 2−flow cell 1, flow cell 3−flow cell 1, or flow cell 4−flow cell 1) was analysed using Biacore T200 Evaluation Software 2.0 to identify binding using the model steady state affinity.

[11] = target: Human FcRn (Acro Biosystems, FCM-H5286) (human, UniProt P55899 24-297; P61769 21-119); test: as above
Chain of Human FcRn (Acro Biosystems, FCM-H5286) (P55899 24-297 limits assumed, chain 1 of 2): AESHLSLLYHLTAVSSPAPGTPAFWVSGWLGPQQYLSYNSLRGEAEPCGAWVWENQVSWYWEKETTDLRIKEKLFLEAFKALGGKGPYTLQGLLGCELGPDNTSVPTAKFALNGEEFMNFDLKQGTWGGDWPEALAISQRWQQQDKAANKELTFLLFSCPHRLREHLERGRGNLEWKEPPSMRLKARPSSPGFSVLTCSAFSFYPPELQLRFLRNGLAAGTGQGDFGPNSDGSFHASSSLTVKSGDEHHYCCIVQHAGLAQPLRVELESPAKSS
Chain of Human FcRn (Acro Biosystems, FCM-H5286) (P61769 21-119 limits assumed, chain 2 of 2): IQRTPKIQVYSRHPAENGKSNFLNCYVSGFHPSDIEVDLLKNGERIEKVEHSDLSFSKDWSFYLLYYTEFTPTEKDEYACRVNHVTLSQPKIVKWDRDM
Source text: as §3, §4

| Binder | EC50 [1] | EC50 (nM), IFN-γ release, human MLR [2] | EC50 (nM), IFN-γ release, CEF antigen recall assay (CD8+ T cell activation) [3] | EC50 [4] | Kd [5] | Kd [6] | EC50 [7] | EC50 (nM), mouse IL-2 release, DO11.10 / LK35.2 PD-L1 blockade assay [8] | EC50 (nM), IFN-γ release, CEFT antigen recall assay (CD4+ T cell activation) [9] | Kd [10] | Kd [11] |
| --- | --- | --- | --- | --- | --- | --- | --- | --- | --- | --- | --- |
| B1 | 0.8 nM | 0.08 nM | 0.04 nM | 3.1 nM | 0.37 nM | 0.21 nM | 0.6 nM | 1.19 nM | 0.06 nM | – | – |
| B2 | – | – | – | – | – | – | – | – | – | 160 nM | 1230 nM |

From patent publication US20250346679A1 (INVOX PHARMA, published 2025)
